Molecular target: T1, hIL-6R (Homo sapiens, UniProt P08887)
T1 sequence (P08887 20-357): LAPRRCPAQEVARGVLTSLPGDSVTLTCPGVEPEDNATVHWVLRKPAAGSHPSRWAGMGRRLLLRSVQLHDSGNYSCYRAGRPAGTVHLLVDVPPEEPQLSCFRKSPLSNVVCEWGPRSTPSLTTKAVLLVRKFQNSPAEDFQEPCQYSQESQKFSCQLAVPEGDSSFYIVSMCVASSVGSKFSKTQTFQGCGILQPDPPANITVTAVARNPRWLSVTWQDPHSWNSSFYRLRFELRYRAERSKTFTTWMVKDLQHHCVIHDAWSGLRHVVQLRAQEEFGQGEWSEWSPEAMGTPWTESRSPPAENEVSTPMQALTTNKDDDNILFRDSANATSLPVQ
Type: binding
Conditions: Octet
Description: Octet ([…]) was used to assess the effect of various small molecules on the antigen-antibody reaction between hIL-6R and the kynurenine-switch antibody 6RNMSC1-2_F02 obtained from a library. A total of eight molecules shown in Example (7-5), which are kynurenine and derivatives thereof, were evaluated as small molecules. The assay buffer used was TBS, pH 7.4, and measurements were carried out at 30° C. Biotinylated hIL-6R was immobilized onto a streptavidin sensor chip, the antibody was allowed to interact, and changes in the amount of its binding were observed. The antibody was diluted using the assay buffer or the assay buffer to which either one of the small molecules has been added. The final concentration of each small molecule was adjusted to 100 uM, while the final antibody concentration was adjusted to 10 μg/mL.

B1: 6RNMSC1-2_F02: antibody binding hIL-6R in the presence of kynurenine; heavy chain SEQ ID NO: 32, light chain SEQ ID NO: 33 (antibody, listed as Homo sapiens, V domains shown)
VH: QVQLVQSGAEVKKPGSSVKVSCKASGGTFSSYAISWVRQAPGQGLEWMGGIIPIFGTANYAQKFQGRVTITADESTSTAYMELSSLRSEDTAVYYCARDAPVVARPRGAFDIWGQGTMVTVSS
VL: DIVMTQTPLSSPVTLGQPASISCRSSQSLVHSDGNTYLSWLQQRPGQPPRLLIHEISNRFSGVPDRFSGSGAGTNFTLKISRVEAEDVGVYYCMQATQFPRTFGQGTKVEIK
100 uM small molecule
  hIL-6R binding in the presence of 3-hydroxy-DL-kynurenine: binding to hIL-6R was observed
  hIL-6R binding in the presence of RO0635389-000-001: binding to hIL-6R was observed
  hIL-6R binding in the presence of RO0635390-000-001: binding to hIL-6R was observed
30° C., antibody 10 μg/mL
  hIL-6R binding in the absence of kynurenine: not observed
  hIL-6R binding in the presence of 100 uM kynurenine: bound to hIL-6R

Source: patent publication US20210180049A1 (CHUGAI SEIYAKU KABUSHIKI KAISHA, priority 2013, published 2021)
